Patent US8592178B2, “Process for the preparation of testosterone” (F.I.S. Fabbrica Italiana Sintetici S.p.A., priority 2009, dated 2013)
Converted amounts (≈) assume the structure as drawn. “And” between values parts separate entries of the source, which are not always exact repeats. Identical values can stand only once.

Legend:
[1] = Solubility of 4-androstene-3,17-dione (saturated solution); type: physicochemical
Experimental: • 5 mg of 4-androstene-3,17-dione in • 5 mL of buffer solution (phosphate buffer 50 mM; pH 6.5). This was stirred at 40° C. for 15 minutes and the suspended matter was filtered thereby obtaining a saturated solution of 4-androstene-3,17-dione (conc. 50 μg/mL). Solution I (NAD Solution) • 10 mg of NAD in • 1 mL of buffer solution. A clear solution was obtained. Solution L ([…]) • 13 mg of GDH-103 (glucose dehydrogenase) in • 1 mL of buffer solution. A clear solution was obtained.
Advantageously, the enzyme of the present invention is capable of carrying out the catalysis also in water-organic solvent mixtures, such as methanol, ethanol, isopropanol in percentages as high as 50%. This mixtures allow increasing the substrate solubility, which is as low as about 50 μg/mL in water.

[2] = Activity test of the recombinant murine type V 17β-hydroxysteroid dehydrogenase enzyme (NADPH consumption at 340 nm); type: biochemical; details: for U/mg: each enzyme preparation; for U/mg / U/ml: preparation parameters (induction temp., time) differ per date of preparation; for U/ml: eluate of each enzyme preparation
Experimental: To estimate the specific enzymatic activity of the purified protein, a kinetic study was carried out by means of a spectrophotometer. The conversion of 4-androstene-3,17-dione into testosterone by means of the recombinant murine type V 17β-hydroxysteroid dehydrogenase enzyme involved the equimolar consumption of the NADPH cofactor, which acted as the reducing agent.
As the transformation of the 4-androstene-3,17-dione into testosterone is equimolar to the oxidation of NADPH, by quantifying the consumption of the latter over time as a function of the enzyme milligrams used, the activity units can be estimated, which are intended as substrate micromoles converted per minute per protein milligram (U/mg).
A fresh saturated NADPH solution in phosphate buffer 100 mM at about pH 7 (SOLUTION Q) and a fresh saturated solution of 4-androstene-3,17-dione in phosphate buffer 100 mM at pH 7 (SOLUTION P) were prepared. In a quartz 100 μl cuvette, 1 cm optical path, 96 μl SOLUTION P, 4 μl phosphate buffer 100 mM at pH 7 were added. The blank was measured at 340 nm. The absorbance values at 340 nm were detected every second. In a quartz 100 μl cuvette 96 μl SOLUTION P, 2 μl SOLUTION Q and finally, 2 μl protein elution quantified by Bradford assay were inserted. The solution was blended thoroughly, then the wavelength reading was started at 340 nm and the values thereof were recorded. In a plot, the absorbance values were inserted, which were obtained as a function of time and the curve was interpolated. The highest derivate value within the early seconds of measurement was thus defined.
With the values obtained, the plot illustrated in FIG. 5 was drawn, which allows to quantify the NADPH consumption rate at time zero (except the self-oxidation given by the control, consisting of the mixture without enzyme, which must be subtracted) and from the latter the enzyme activity units per protein milligram (U/mg). To calculate the units, the following Formula was used: Unit/mg=|derivate (s^−1)|*60 (sec/min)*1 (cm)/6220 (M^−1Cm^−1)*1000000 (M/M)*[…]/[(mg/mL sol enzyme*0.002 (mL))]=(μmol/min)/mg
A study to optimize the process for the preparation of the purified recombinant murine enzyme Type V 17β-hydroxysteroid dehydrogenase was carried out. […] It can be seen that the highest activity of the enzyme is reached performing the incubation (protein expression) at a temperature lower than 30° C., particularly preferred is the range between 20° C. and 30° C. The incubation temperature is a key parameter for the preparation of the enzyme.

[3] = Stability study of the enzyme (activity as a function of time at room temperature); type: physicochemical; details: in the elution solution (SOLUTION G) at room temperature
Experimental: A study to verify the stability in water of the purified recombinant murine enzyme Type V 17β-hydroxysteroid dehydrogenase of the invention was carried out. […] It can be seen that the enzyme is sufficiently stable to allow industrial biocatalysis as it is still active even after 15 days (Half-life).

| Molecule | U/mg [2] | U/ml [2] | also measured |
| --- | --- | --- | --- |
| C[C@]12CCC(=O)C=C1CC[C@@H]1[C@@H]2CC[C@]2(C)C(=O)CC[C@@H]12 [4-androstene-3,17-dione] | – | – | solubility ([1]; in water): ~50 µg/mL (≈ 175 µM); concentration of saturated solution ([1]; phosphate buffer 50 mM pH 6.5, stirred at 40° C. for 15 minutes, filtered): 50 µg/mL |
| 09/10/09: Preparation of the purified recombinant enzyme dated 09/10/09; induction 26 °C, 19 h (protein, UniProt P70694 1-323, looked up, N-terminal His-tag, Preparation of the purified recombinant enzyme dated 09/10/09; induction 26 °C, 19 h) Estradiol 17 …: MDSKQQTVRLSDGHFIPILGFGTYAPQEVPKSKATEATKIAIDAGFRHIDSASMYQNEKEVGLAIRSKIADGTVKREDIFYTSKVWCTFHRPELVRVCLEQSLKQLQLDYVDLYLIHFPMAMKPGENYLPKDENGKLIYDAVDICDTWEAMEKCKDAGLAKSIGVSNFNRRQLEKILKKPGLKYKPVCNQVECHPYLNQGKLLDFCRSKDIVLVAYSALGSHREKQWVDQSSPVLLDNPVLGSMAKKYNRTPALIALRYQLQRGVVVLAKSFSEKRIKENMQVFEFQLTSEDMKVLDDLNKNIRYISGSSFKDHPDFPFWDEY | 0.0133 U/mg | 0.65 U/ml | – |
| 02/07/09: Preparation of the purified recombinant enzyme dated 02/07/09; induction 28 °C, 24 h (protein, UniProt P70694 1-323, looked up, N-terminal His-tag, Preparation of the purified recombinant enzyme dated 02/07/09; induction 28 °C, 24 h) Estradiol 17 …: MDSKQQTVRLSDGHFIPILGFGTYAPQEVPKSKATEATKIAIDAGFRHIDSASMYQNEKEVGLAIRSKIADGTVKREDIFYTSKVWCTFHRPELVRVCLEQSLKQLQLDYVDLYLIHFPMAMKPGENYLPKDENGKLIYDAVDICDTWEAMEKCKDAGLAKSIGVSNFNRRQLEKILKKPGLKYKPVCNQVECHPYLNQGKLLDFCRSKDIVLVAYSALGSHREKQWVDQSSPVLLDNPVLGSMAKKYNRTPALIALRYQLQRGVVVLAKSFSEKRIKENMQVFEFQLTSEDMKVLDDLNKNIRYISGSSFKDHPDFPFWDEY | 0.027 U/mg | 0.29 U/ml | – |
| 25/03/09: Preparation of the purified recombinant enzyme dated 25/03/09; induction 37 °C, 15 h (protein, UniProt P70694 1-323, looked up, N-terminal His-tag, Preparation of the purified recombinant enzyme dated 25/03/09; induction 37 °C, 15 h) Estradiol 17 …: MDSKQQTVRLSDGHFIPILGFGTYAPQEVPKSKATEATKIAIDAGFRHIDSASMYQNEKEVGLAIRSKIADGTVKREDIFYTSKVWCTFHRPELVRVCLEQSLKQLQLDYVDLYLIHFPMAMKPGENYLPKDENGKLIYDAVDICDTWEAMEKCKDAGLAKSIGVSNFNRRQLEKILKKPGLKYKPVCNQVECHPYLNQGKLLDFCRSKDIVLVAYSALGSHREKQWVDQSSPVLLDNPVLGSMAKKYNRTPALIALRYQLQRGVVVLAKSFSEKRIKENMQVFEFQLTSEDMKVLDDLNKNIRYISGSSFKDHPDFPFWDEY | 0.0149 U/mg | 0.4955 U/ml | – |
| 26/09/08: Preparation of the purified recombinant enzyme dated 26/09/08; induction 37 °C, 18 h (protein, UniProt P70694 1-323, looked up, N-terminal His-tag, Preparation of the purified recombinant enzyme dated 26/09/08; induction 37 °C, 18 h) Estradiol 17 …: MDSKQQTVRLSDGHFIPILGFGTYAPQEVPKSKATEATKIAIDAGFRHIDSASMYQNEKEVGLAIRSKIADGTVKREDIFYTSKVWCTFHRPELVRVCLEQSLKQLQLDYVDLYLIHFPMAMKPGENYLPKDENGKLIYDAVDICDTWEAMEKCKDAGLAKSIGVSNFNRRQLEKILKKPGLKYKPVCNQVECHPYLNQGKLLDFCRSKDIVLVAYSALGSHREKQWVDQSSPVLLDNPVLGSMAKKYNRTPALIALRYQLQRGVVVLAKSFSEKRIKENMQVFEFQLTSEDMKVLDDLNKNIRYISGSSFKDHPDFPFWDEY | 0.00725 U/mg | 0.2247 U/ml | – |
| 13/06/09: Preparation of the purified recombinant enzyme dated 13/06/09; induction 39 °C, 20 h (protein, UniProt P70694 1-323, looked up, N-terminal His-tag, Preparation of the purified recombinant enzyme dated 13/06/09; induction 39 °C, 20 h) Estradiol 17 …: MDSKQQTVRLSDGHFIPILGFGTYAPQEVPKSKATEATKIAIDAGFRHIDSASMYQNEKEVGLAIRSKIADGTVKREDIFYTSKVWCTFHRPELVRVCLEQSLKQLQLDYVDLYLIHFPMAMKPGENYLPKDENGKLIYDAVDICDTWEAMEKCKDAGLAKSIGVSNFNRRQLEKILKKPGLKYKPVCNQVECHPYLNQGKLLDFCRSKDIVLVAYSALGSHREKQWVDQSSPVLLDNPVLGSMAKKYNRTPALIALRYQLQRGVVVLAKSFSEKRIKENMQVFEFQLTSEDMKVLDDLNKNIRYISGSSFKDHPDFPFWDEY | 0.00393 U/mg | 0.0566 U/ml | – |
| 22/04/09: Preparation of the purified recombinant enzyme dated 22/04/09; induction 37 °C, 21 h (protein, UniProt P70694 1-323, looked up, N-terminal His-tag, Preparation of the purified recombinant enzyme dated 22/04/09; induction 37 °C, 21 h) Estradiol 17 …: MDSKQQTVRLSDGHFIPILGFGTYAPQEVPKSKATEATKIAIDAGFRHIDSASMYQNEKEVGLAIRSKIADGTVKREDIFYTSKVWCTFHRPELVRVCLEQSLKQLQLDYVDLYLIHFPMAMKPGENYLPKDENGKLIYDAVDICDTWEAMEKCKDAGLAKSIGVSNFNRRQLEKILKKPGLKYKPVCNQVECHPYLNQGKLLDFCRSKDIVLVAYSALGSHREKQWVDQSSPVLLDNPVLGSMAKKYNRTPALIALRYQLQRGVVVLAKSFSEKRIKENMQVFEFQLTSEDMKVLDDLNKNIRYISGSSFKDHPDFPFWDEY | 0.0057 U/mg | 0.1470 U/ml | – |
| recombinant murine type V 17β-hydroxysteroid dehydrogenase enzyme: Purified recombinant murine type V 17β-hydroxysteroid dehydrogenase with N-terminal His-tag tail, SEQ ID n. 2, expressed in E. coli (protein, N-terminal His-tag; modified 17-beta-deidrogenase, 2, expressed in E. coli) MGSSHHHHHHSSGLVPRGSHMDSKQQTVRLSDGHFIPILGFGTYAPQEVPKSKATEATKIAIDAGFRHIDSASMYQNEKEVGLAIRSKIADGTVKREDIFYTSKVWCTFHRPELVRVCLEQSLKQLQLDYVDLYLIHFPMAMKPGENYLPKDENGKLIYDAVDICDTWEAMEKCKDAGLAKSIGVSNFNRRQLEKILKKPGLKYKPVCNQVECHPYLNQGKLLDFCRSKDIVLVAYSALGSHREKQWVDQSSPVLLDNPVLGSMAKKYNRTPALIALRYQLQRGVVVLAKSFSEKRIKENMQVFEFQLTSEDMKVLDDLNKNIRYISGSSFKDHPDFPFWDEY | – | – | specific enzymatic activity (substrate micromoles converted per minute per protein milligram) ([2]; two different preparations, NADPH cofactor, phosphate buffer 100 mM pH 7): 0.006 U/mg and 0.007 U/mg; half-life [3]: more than 15 days |
